Among the data in patent US20110033543A1 (UNIVERSITY OF DELAWARE, published 2011) are binding result and Kd values, retold here.

One data set deals with T1, streptavidin (SA chip) (UniProt P22629 37-163, limits assumed).
T1 construct: Chip surface of the SPR experiments; also called SA chips; streptavidin-coated chip
Kind of data set: SPR, Biacore 3000, streptavidin-coated chip.

Data set [1] concerns the molecule itself. Briefly: circular dichroism, concentration dependence of MRE at 222 nm in PBS, fit for the Kd of the dimerization; isolated PF4ZIP, not conjugated to PEG. (In general: Circular dichroism is widely used to follow secondary structure.)
Procedure: Samples were equilibrated at the desired temperature for 30 minutes prior to data collection; equilibration was indicated by the absence of further changes in the CD signal at longer equilibration times. All CD spectra were taken in a 1 mm path length quartz cuvette, at wavelengths from 200 to 250 nm. Data points were recorded at every nanometer with a 4.0 s response time. The concentrations of peptide samples were determined via amino acid analysis for calculation of mean residue ellipticities.
The conformation of PF₄ZIP at various concentrations was also monitored via CD. […] The difference between the measured ellipticity and the ellipticity of the unfolded monomer is related to concentration and can be fit to determine the Kd of the dimerization, via standard fitting procedures well-described in the literature.

Ends that are not written are not given here.

T1 sequence (P22629 37-163 limits assumed): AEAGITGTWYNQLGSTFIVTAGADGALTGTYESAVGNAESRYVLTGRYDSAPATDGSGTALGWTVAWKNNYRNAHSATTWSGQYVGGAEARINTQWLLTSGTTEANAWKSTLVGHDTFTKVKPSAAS
Procedure for streptavidin (SA chip): Surface Plasmon Resonance (SPR). SPR sensorgrams were recorded on a BiaCore 3000 instrument (Biacore Inc, Piscataway, N.J.), employing a high-capacity LMWH surface created on a commercially available streptavidin-coated chip via treatment with biotinylated LMWH.
In SPR experiments, the interaction of the peptides with a LMWH-modified SA chip surface was determined under conditions described in the experimental section.

B1: PF4ZIP (peptide)
peptide: CGGRMKQLEDKVKKLLKKNYHLENEVARLKKLVG-NH2
modifications: also: coiled-coil dimer
notes: also called coiled-coil PF4ZIP
In general, Kd refers to a measure of binding affinity in units of concentration. Read a low Kd as tighter binding. Regarding B1, the binding result with streptavidin (SA chip) is listed as “no binding”. Binding in data set [1] was characterised by a dissociation constant (Kd) of 3.48 µM.
